What was measured:
huPrP23-231 (human) = huPrP23-231 (human) (UniProt P04156); assay: DELFIA
huPrP23-231 = huPrP23-231 (Homo sapiens, UniProt P04156); assay: DELFIA

Molecule | Kd (huPrP23-231 (human)) [nM] | Kd (huPrP23-231) [nM] | Ki (huPrP23-231) [nM]
bADDLs prepared from biotinylated Aβ1-42 (bAβ1-42) (from UniProt P05067) (peptide) | 82 |  | 
Aβ-derived diffusible ligands (ADDLs) prepared from Aβ1-42 (from UniProt P05067) (peptide) | 100 |  | 
ICSM-18 (antibody, V domains shown) VH: EVQLQQSGPELVKPGSSVKISCKASRNTFTDYNLDWVKQSHGKTLEWIGNVYPNNGVTGYNQKFRGKATLTVDKSSSTAYMELHSLTSEDSAVYYCALYYYDVSYWGQGTLVTVSS VL: QIVLTQSPAIMSASPGEKVTMTCSASSSVSYMHWYQQKSGTSPKRWIYDTSKLASGVPARFSGSGSGTSYSLTISSMEAEDAATYFCHQWRSNPYTFGGGTKLEIK |  | ~10 | ~20
